Data set [1] deals with 293T cells and Jurkat T cells. In words: RBD binding after overnight culture in the absence of glucose. To be noted: both 293T cells and Jurkat T cells. More on the design: species or system human. The protocol:
Cell culture. 293T human embryonic kidney and HeLa cervical carcinoma cells were grown in Dulbecco's modified Eagle medium (DMEM) with high glucose (4.5 g/l) and Jurkat T-cells were grown in RPMI supplemented with 10% fetal bovine serum (FBS) at 37° C. in a 5% CO2-95% air atmosphere. For glucose starvation experiments, cells were grown in either glucose-free DMEM (Life Technologies) or glucose-free RPMI—(Dutscher) with 10% dialyzed FBS (Life Technologies) and glucose (1 g/l) was supplemented when indicated.
(§1) Binding assays. Binding assays were carried out as previously described [Manel, 2003]. Briefly, 5×10^5 cells (293T, HeLa, Jurkat or freshly isolated human erythrocytes) were incubated with 500 μl of H1RBD, H2RBD or ARBD supernatants for 30 min at 37° C., washed with PBA (1% BSA, 0.1% sodium azide in PBS), and incubated with a sheep anti-rabbit IgG antibody conjugated to fluorescein isothiocyanate (Sigma). […] Binding was analyzed on a FACSCalibur (Becton Dickinson) and data analysis was performed using CellQuest (Becton Dickinson) and WinMDI (Scripps) softwares.

A further data set relates to 293T cells. In words: Glucose consumption of transfected cells. To be noted: normalized to cellular protein content. It is filed as cell-based, human. The protocol:
Envelope expression and metabolic measurements. 293T cells were transfected with the various envelope expression vectors using a modified version of the calcium phosphate method. After an overnight transfection, cells were washed in phosphate-buffered saline (PBS) and fresh medium was added. Media were harvested at the indicated time points, filtered through a 0.45-μm pore-size filter, and lactate and glucose were measured with enzymatic diagnostic kits (Sigma). Values were normalized to cellular protein content using the Bradford assay (Sigma) after solubilization of cells in lysis buffer (50 mM Tris-HCl pH 8.0, 150 mM NaCl, 0.1% sodium dodecyl sulfate, 1.0% Nonidet P-40, 0.5% deoxycholate) and clarification by centrifugation.

Another data set has as its target T1, GLUT-1 (Homo sapiens, UniProt P11166).
T1 construct: factor Xa cleavage site (C); His (C); expressed in transfected cells
T1 sequence (P11166 1-492): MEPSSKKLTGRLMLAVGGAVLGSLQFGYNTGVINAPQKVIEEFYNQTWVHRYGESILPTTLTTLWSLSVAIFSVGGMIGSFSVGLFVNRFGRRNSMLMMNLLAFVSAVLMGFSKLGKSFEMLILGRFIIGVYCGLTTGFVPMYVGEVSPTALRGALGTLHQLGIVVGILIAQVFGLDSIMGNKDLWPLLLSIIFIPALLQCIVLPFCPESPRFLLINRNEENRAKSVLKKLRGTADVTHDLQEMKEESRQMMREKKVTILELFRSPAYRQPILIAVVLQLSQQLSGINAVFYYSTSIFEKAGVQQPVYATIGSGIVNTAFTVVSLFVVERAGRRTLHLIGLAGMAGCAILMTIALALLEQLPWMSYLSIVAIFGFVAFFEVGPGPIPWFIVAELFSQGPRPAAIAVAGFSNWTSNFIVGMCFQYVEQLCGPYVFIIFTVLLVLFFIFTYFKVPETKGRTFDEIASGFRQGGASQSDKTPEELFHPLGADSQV
In words: Immunoprecipitation of GLUT-1-HA with anti-rabbit-Fc beads. The note with it: co-expression with GLUT-1 in 293T cells, probed with anti-HA antibody. In kind it is binding. From the text:
FIGS. 4a-4c GLUT-1 is a receptor for HTLV envelopes. FIG. 4a, Binding of H1RBD, H2RBD, H2RBD D102A mutant, and ARBD to control 293T cells or 293T cells overexpressing either GLUT-1 or PiT2. FIG. 4b, Binding of H2RBD-EGFP to cells overexpressing GLUT-1-HA or GLUT-3-HA, and corresponding immunoblots using an anti-HA antibody. FIG. 4c, Immunoprecipitation of GLUT-1-HA from 293T cells transfected with either an irrelevant construct, GLUT-1 alone, H1RBD alone, H1RBD Y114A alone, GLUT-1 with H1RBD or GLUT-1 with H1RBD Y114A expression vectors Immunoprecipitation was performed using anti-rabbit-Fc beads and probed with an anti-HA antibody. Total cell extracts were blotted using an anti-rabbit Fc or an anti-HA antibody.
In order to directly test the ability of HTLV envelopes to bind GLUT-1, we derived a tagged GLUT-1 expression vector and overexpressed this protein in HeLa cells. […] GLUT-3 is the closest isoform to GLUT-1, and transports glucose with kinetics similar to that of GLUT-1. Thus, we derived a tagged GLUT-3 expression vector. […] To determine if GLUT-1 transfected cells were directly responsible for the observed increased in H1RBD binding, we derived fluorescent tagged GLUT-1 and GLUT-3 to uniquevocally identity GLUT-overexpressing cells in the course of our FACS analysis. […] To this end, we evaluated the ability of H1RBD to immunoprecipitate GLUT-1. […]

The subject of the next data set is PiT2. Description: RBD binding to cells overexpressing PiT2.
For the next data set, the system named is human erythrocytes. Description: RBD binding on freshly isolated human erythrocytes. To be noted: freshly isolated red blood cells. As for the experimental part: as §1
In data set [2] the test system is human primary hepatocytes. In words: RBD binding on human primary hepatocytes.

B1: H1RBD: first 215 residues of HTLV-1 SU fused to a C-terminal rabbit IgG Fc tag (rFc) (protein)
chain: DYSPSCCTLTIGVSSYHSKPCNPAQPVCSWTLDLLALSADQALQPPCPNLVSYSSYHATYSLYLFPHWIKKPNRNGGGYYSASYSDPCSLKCPYLGCQSWTCPYTGAVSSPYWKFQQDVNFTQEVSRLNINLHFSKCGFPFSLLVDAPGYDPIWFLNTEPSQLPPTAPPLLPHSNLDHILEPSIPWKSKLLTLVQVDVPRDCGCKPCICTVPEVSSVFIFPPKPKDVLTITLTPKVTCVVVDISKDDPEVQFSWFVDDVEVHTAQTQPREEQFNSTFRSVSELPIMHQDWLNGKEFKCRVNSAAFPAPIEKTISKTKGRPKAPQVYTIPPPKEQMAKDKVSLTCMITDFFPEDITVEWQWNGQPAENYKNTQPIMDTDGSYFVYSKLNVQKSNWEAGNTFTCSVLHEGLHNHHTEKSLSHSPGK
For the molecule B1, in data set [1], the “increase of binding after overnight culture in the absence of glucose” value is recorded as 2 fold. For the same molecule, the “Glucose consumption compared to control cells” value with 293T cells is “significantly decreased”. For the same molecule, the “detection of GLUT-1 upon immunoprecipitation with anti-rabbit-Fc-beads” value with GLUT-1 is “readily detected”. Moreover, the “binding upon overexpression of PiT2” value with PiT2 is “remained at background levels”. In addition, the “binding on human erythrocytes” value with human erythrocytes is “strikingly efficient”. Also, the “binding to human primary hepatocytes” value in data set [2] is “unable to detect H1RBD binding”.

These data come from US9777044B2, “GLUT-1 as a receptor for HTLV envelopes and its uses” (CENTRE NATIONAL DE LA RECHERCHE SCIENTIFIQUE (CNRS), priority 2003, dated 2017).
